Experimental data: paper PMC7584627

Target: LuS-N71-SpyTag (Aquifex aeolicus)
Assay: SDS-PAGE of the covalent conjugate, band intensities

Question: Which percent of nanoparticle subunit conjugated does the source give for SARS-CoV-2 spike-SpyCatcher here?
Answer: 91%
